One data set deals with T1, FANCJ K52R (UniProt Q9BX63 1-1249, K52R).
T1 sequence: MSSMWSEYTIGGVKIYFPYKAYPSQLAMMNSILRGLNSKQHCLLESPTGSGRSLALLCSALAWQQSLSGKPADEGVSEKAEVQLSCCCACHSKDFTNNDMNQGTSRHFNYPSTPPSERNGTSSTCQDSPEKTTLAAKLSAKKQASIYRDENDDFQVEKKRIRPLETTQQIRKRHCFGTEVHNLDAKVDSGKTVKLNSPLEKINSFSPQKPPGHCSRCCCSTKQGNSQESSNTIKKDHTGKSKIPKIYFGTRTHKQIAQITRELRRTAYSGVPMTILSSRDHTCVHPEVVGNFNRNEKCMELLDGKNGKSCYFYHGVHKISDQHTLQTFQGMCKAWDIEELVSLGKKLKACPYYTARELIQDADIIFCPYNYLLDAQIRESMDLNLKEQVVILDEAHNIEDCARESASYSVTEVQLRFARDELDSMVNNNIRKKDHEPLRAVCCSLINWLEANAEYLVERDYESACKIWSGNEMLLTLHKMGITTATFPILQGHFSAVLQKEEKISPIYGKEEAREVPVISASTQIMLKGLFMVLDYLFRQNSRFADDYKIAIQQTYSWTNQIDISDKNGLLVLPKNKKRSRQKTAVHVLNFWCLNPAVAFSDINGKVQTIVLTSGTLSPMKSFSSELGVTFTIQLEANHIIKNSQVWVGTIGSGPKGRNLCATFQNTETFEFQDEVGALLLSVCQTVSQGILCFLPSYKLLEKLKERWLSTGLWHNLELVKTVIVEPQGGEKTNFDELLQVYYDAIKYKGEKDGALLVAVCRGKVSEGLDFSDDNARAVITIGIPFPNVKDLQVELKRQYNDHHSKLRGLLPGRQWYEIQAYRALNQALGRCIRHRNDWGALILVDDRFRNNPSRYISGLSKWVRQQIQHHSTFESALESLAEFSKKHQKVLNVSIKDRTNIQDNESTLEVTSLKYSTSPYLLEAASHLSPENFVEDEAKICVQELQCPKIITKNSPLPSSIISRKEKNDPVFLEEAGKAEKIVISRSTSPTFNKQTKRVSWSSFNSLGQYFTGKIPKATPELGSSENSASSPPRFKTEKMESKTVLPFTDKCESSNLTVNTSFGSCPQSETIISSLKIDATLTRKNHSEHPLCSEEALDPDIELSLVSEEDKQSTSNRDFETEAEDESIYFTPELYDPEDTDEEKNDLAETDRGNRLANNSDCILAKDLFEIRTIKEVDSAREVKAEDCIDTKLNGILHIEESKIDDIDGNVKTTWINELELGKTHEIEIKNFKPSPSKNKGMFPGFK
Put plainly: EMSA; 10/40/70 nM protein, 5 nM DNA, no ATP; EMSA: 15 mM Na-phosphate pH 7.4, 45 mM NaCl, 3% glycerol, 40 mM Tris-HCl pH 7.4, 25 mM KCl, 100 ng/ul BSA, 2 mM DTT, 0.1 mM EDTA; 30 min at 25 C; 5% PAGE in 1x. The settings on record: protein: recombinant; tags: N-terminal Flag; label: 5'-FAM on strand 1. (In general: Mobility shift assays separate free from complexed probe on a gel.)

The next data set concerns the target T2, FANCJ M299I (UniProt Q9BX63 1-1249, M299I).
T2 sequence: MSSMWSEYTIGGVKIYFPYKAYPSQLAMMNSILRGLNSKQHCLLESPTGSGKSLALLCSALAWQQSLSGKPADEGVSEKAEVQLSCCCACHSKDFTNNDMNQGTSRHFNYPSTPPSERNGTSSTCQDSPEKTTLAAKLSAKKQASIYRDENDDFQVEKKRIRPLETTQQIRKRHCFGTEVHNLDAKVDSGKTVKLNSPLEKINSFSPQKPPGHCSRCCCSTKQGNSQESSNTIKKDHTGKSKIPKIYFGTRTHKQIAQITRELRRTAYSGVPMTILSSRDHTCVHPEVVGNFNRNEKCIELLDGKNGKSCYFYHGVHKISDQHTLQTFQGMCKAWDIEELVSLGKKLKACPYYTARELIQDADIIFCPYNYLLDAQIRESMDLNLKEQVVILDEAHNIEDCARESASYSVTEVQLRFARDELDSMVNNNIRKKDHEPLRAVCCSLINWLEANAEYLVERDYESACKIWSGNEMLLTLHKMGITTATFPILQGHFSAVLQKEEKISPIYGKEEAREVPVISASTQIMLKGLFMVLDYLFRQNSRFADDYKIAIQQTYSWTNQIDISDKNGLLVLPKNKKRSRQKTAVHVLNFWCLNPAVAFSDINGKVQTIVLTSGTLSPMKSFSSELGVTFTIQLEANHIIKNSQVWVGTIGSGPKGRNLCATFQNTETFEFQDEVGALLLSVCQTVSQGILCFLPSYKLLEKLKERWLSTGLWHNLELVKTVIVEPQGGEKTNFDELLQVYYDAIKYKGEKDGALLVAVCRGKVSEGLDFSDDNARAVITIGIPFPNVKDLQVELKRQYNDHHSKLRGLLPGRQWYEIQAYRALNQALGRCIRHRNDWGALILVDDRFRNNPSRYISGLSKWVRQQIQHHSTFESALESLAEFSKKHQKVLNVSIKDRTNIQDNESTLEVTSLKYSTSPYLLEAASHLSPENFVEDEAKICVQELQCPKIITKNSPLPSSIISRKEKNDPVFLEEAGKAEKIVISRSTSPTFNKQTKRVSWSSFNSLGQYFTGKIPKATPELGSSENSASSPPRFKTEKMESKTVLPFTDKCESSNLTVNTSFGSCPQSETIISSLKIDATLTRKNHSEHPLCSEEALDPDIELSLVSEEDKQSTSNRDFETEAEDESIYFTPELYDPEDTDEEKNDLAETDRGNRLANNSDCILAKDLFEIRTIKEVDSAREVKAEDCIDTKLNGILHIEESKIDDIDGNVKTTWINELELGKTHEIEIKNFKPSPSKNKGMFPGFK
Put plainly: EMSA; 10/40/70 nM protein, 5 nM DNA, no ATP; wild-type level of binding; EMSA: 15 mM Na-phosphate pH 7.4, 45 mM NaCl, 3% glycerol, 40 mM Tris-HCl pH 7.4, 25 mM KCl, 100 ng/ul BSA, 2 mM DTT, 0.1 mM EDTA; 30 min at 25 C; 5% PAGE in 1x. The settings on record: protein: recombinant; tags: N-terminal Flag; label: 5'-FAM on strand 1.

B1: Y-structure (XO1/sDO1) (dsDNA)
DNA 1: GACGCTGCCGAATTCTACCAGTGCCTTGCTAGGACATCTTTG
DNA 2: TTTTTTTTTTTTTTTTTTTTTTTTTTTTTTTTTTTTGGTAGAATTCGGCAGCGT
As to B1, the binding result with FANCJ K52R and with FANCJ M299I was “binds” in each case.
